Earlier results in publication PMC3930863.

Experiments:
[1] = target: InlC (Listeria monocytogenes) (UniProt P71451); assay: isothermal titration calorimetry
N-WASP (Homo sapiens) = assay: isothermal titration calorimetry

Chain of UniProt P71451 (P71451 35-297): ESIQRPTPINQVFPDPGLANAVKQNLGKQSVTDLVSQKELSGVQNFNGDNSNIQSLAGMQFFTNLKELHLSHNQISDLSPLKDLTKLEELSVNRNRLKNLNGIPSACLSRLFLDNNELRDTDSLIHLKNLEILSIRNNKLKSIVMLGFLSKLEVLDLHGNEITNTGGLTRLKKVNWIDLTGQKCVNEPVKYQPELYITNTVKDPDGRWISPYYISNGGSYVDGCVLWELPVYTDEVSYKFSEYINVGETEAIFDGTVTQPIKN

## Tuba SH3-6 (from UniProt Q6XZF7)
[1]
  Kd: 5.4 µM
N-WASP (Homo sapiens)
  Kd: 46.5 µM
